Data from patent publication US20210047395A1 (Hoffmann-La Roche, published 2021).
Blank lines part the entries; values can stand above or below the binder they belong to.

Legend:
[1] = target: T1, VEGF-121-His (inhouse production) (human, UniProt P15692 207-395); assay: VEGF:VEGF-R1 inhibition ELISA (Example 4, as Example 2): 0.34 nM VEGF-121-His pre-incubated with the Fab, then added to plate-bound biotinylated VEGF-R1, anti-His POD detection; blocked partner: VEGF-R1
T1 construct: Treated as one molecule; also called hVEGF-A121; not shown: His tag
T1 sequence: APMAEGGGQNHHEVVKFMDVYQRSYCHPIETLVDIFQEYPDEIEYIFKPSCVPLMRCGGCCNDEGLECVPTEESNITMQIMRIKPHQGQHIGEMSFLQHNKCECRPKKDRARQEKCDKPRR

[2] = target: T2, VEGF (as used in the Biacore active concentration test of Example 6) (Homo sapiens (Human), UniProt P15692 27-147, VEGF is a disulfide-linked homodimer; one protomer is given); assay: Biacore, normalized to unstressed aliquot; Fab stressed 2 w/40 C/pH 6.0
T2 sequence: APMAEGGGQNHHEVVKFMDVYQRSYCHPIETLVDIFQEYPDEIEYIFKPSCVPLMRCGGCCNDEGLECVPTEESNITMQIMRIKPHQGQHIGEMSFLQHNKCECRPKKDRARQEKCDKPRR
Method: (§1) Antibody samples were formulated in 20 mM His/HisCl, 140 mM NaCl, pH 6.0, and were split into three aliquots: one aliquot was re-buffered into PBS, respectively, and two aliquots were kept in the original formulation. The PBS aliquot and one His/HisC1 aliquot were incubated for 2 weeks (2 w) at 40° C. (His/NaCl) or 37° C. (PBS) in 1 mg/ml, the PBS sample was incubated further for total 4 weeks (4 w). The third control aliquot sample was stored at −80° C.

[3] = target: T2, VEGF (as used in the Biacore active …); assay: Biacore, normalized to unstressed aliquot; Fab stressed 2 w/37 C/pH 7.4
Method: as §1

[4] = target: T2, VEGF (as used in the Biacore active …); assay: Biacore, normalized to unstressed aliquot; Fab stressed 4 w/37 C/pH 7.4
Method: as §1

[5] = target: T1, VEGF-121-His (inhouse production); assay: SPR, hVEGF-A121 captured by anti-His antibody, 25 C
Method: (§2) An anti-His capturing antibody (GE Healthcare 28995056) was immobilized to a Series S Sensor Chip C1 (GE Healthcare 29104990) using standard amine coupling chemistry resulting in a surface densitiy of 500-1000 resonance units (RU). […] The surface was regenerated by injecting 10 mM Glycine pH 1.5 for 60 s. […] Rate constants were calculated using the Langmuir 1:1 binding model within the Biacore Evaluation software.
(§3) The affinity of the antibodies was determined by SPR using the same methods as described in Example 2.

[6] = target: T1, VEGF-121-His (inhouse production); assay: SPR, hVEGF-A121 captured by anti-His antibody, 37 C
Method: as §2, §3

[7] = target: T1, VEGF-121-His (inhouse production); assay: VEGF:VEGF-R1 inhibition ELISA (Example 4, as Example 2): 0.7 nM VEGF-121-His pre-incubated with the Fab, then added to plate-bound biotinylated VEGF-R1, anti-His POD detection; blocked partner: VEGF-R1
Method: Plates were incubated for 1 h at room temperature. […] Plates were incubated for 1 h at room temperature. […] After washing 3 times with 90 μl/well PBST-buffer, 25 μl/well detection antibody (anti His POD, Bethyl, #A190-114P, 1:12000) in 1×OSEP was added. After incubation for 1 h at room temperature plates were washed 3 times with 90 μl PBST-buffer. 25 μl TMB (Roche, #11 835 033 001) was added to all wells simultaneously. After 10 min incubation at room temperature, signals were detected at 370 nm/492 nm on a Tecan Safire 2 Reader.

binding result [1]: binds
B1: VEGF-P1AD8674 Fab (Fab, V domains shown)
VH: EVQLVESGGGLVQPGGSLRLSCAASGFTFTNYAMTWVRQAPGKGLEWVSSIGNGGGIYTYYADSVKGRFTISRNNAENTLYLQMNSLRAEDTAVYYCAKGDNLFDSWGPGTLVTVSS
VL: DIQMTQSPASLSASVGDRVTITCRASQSIYSSLNWYQQKPGKAPKLLIYASTLQSGVPSRFSGSASGTDFTLTISSLQPEDVATYYCQQYQNFPRTFGQGTKLEIKR

VEGF-binding activity after stress (relative active concentration) [2]: 102
VEGF-binding activity after stress (relative active concentration) [3]: 102
VEGF-binding activity after stress (relative active concentration) [4]: 102
Kd [5]: 0.119 nM
Kd [6]: 0.094 nM
B2: VEGF-P1AE3519 Fab (Fab, V domains shown)
VH: EVQLVESGGGLVQPGGSLRLSCAASGFTFTNYAMTWVRQAPGKGLEWVSSIGSGGGIYTYYADSVKGRFTISRDNWKNTLYLQMNSLRAEDTAVYYCAKGDNLFDSWGPGTLVTVSS
VL: DIQMTQSPASLSASVGDRVTITCRASQSIYSSLNWYQQKPGKAPKLLIYASTLQSGVPSRFSGSASGTDFTLTISSLQPEDVATYYCQQYQNFPRTFGQGTKLEIKR
notes: Control variant of VEGF-0089 with N52aS in H-CDR2 and S74W in H-FR3 (Kabat)

binding result [7]: binds
B3: VEGF-0112 Fab (Fab, V domains shown)
VH: EVQLVESGGGLVQPGGSLRLSCAASGFTFTNYAMTWVRQAPGKGLEWVSSIGSGGGIYTYYADSVKGRFTISRDNSKNTLYLQMNSLRAEDTAVYYCAKGDNLFDSWGPGTLVTVSS
VL: DIQMTQSPASLSASVGDRVTITCRASQSIYSSLNWYQQKPGKAPKLLIYASTLQSGVPSRFSGSASGTDFTLTISSLQPEDVATYYCQQYQNFPRTFGQGTKLEIKR
